# Test results: IntAct's records for PubMed 24880343
# B1: PAN2-PAN3 deadenylation complex catalytic subunit pan2 (Neurospora crassa (strain ATCC 24698 / 74-OR23-1A / CBS 708.71 / DSM 1257 / FGSC 987)), P0C581 (parent)
# chain: MDSRDWTQLGCVAYPSPIHPDYHAGPASTIAFDNQDELLWIGTQKGFAGSFIGRELKRFTAFRIHPETDGPLRQFLFVDKGVIFLGSRSVYMAARSGVPIWSIRHESMQDLRAMSFTSKGTSEILVAGWQNKMLVIDVNKGEVVKELPTQDQYSFLKMSRYICAATNKGTVNILDPITFTIKKQWQAHGAFINDLDTSNDFIVTCGGSHRQTHNTPAILDPYVKVFDLKNMSAMNPVPFAPLAAHVRMHPRMLTTAIVVNQAGQIHVTDLLNPSNSQVCYTQPQGVVLHFDVSRTGEGKALADNKHNTYVWGSPNKIQFTEIGIPPRLPDPPQPSLLPPDPDMLEELPLSRIGLPYYREQLFSALPPDIISDVGAPPQQIDPNILSTLTKTDWGYIGPNKTGLQRNQYMDTRSTMKTSNTIRAPKFLSEKARESQTGSEDNTLATNETAMMTPNNDHWSLRPEAPPEYRICEIKYSKFGVDDFDFGFFNNTPYPGLENNITNSYANSLLQVMHYTPLLRNMALQHAATACLADPCLLCELGYVFDMLQKGEGPSCHATNMLRALNHTSNASVSGVLEDIAKDKNPSTLVKNLTMFLFDKISQDYKGTPPISTELERTLFKLNQPPNPLDLVKRLLETDARYQIKCMHCQHVSPRTATTFVNKLCYPAAKPNIRGMKAQRITFSQVLKAGLENEAVNKGYCTKCQRYQNLDQRKIIFNIPAVLALCTEITTAEHRKLWSTPGWLPEEIGIIVDQGHVYCYEGDDLKLHLNRGIHNITVYSLVGTVVNVETKSPQKSHLVATVNVGRAEPESKDQDRWHLFNDFSVRGISKVEALTFNAAWKMPVVVMFQVKAANHRFNMDWKTRLDTSVLFRDNNPHALKTYELLDRETEIPGPDTVIAIDTEFIRLKEREIHIDEDGKSKTIRPISHAIARASVVRGQGSREGVAFIDDYIHIKETIVDYLTEWSGITPTDLDPINSQRNLVSPKTAYKKLWVLVNLGCKFLGHGLSQDFRVINIQVPRNQVIDTSIIFMKPPSQRKISLAFLAWYLLKEDIQQNTHDSIEDAQTALKLYRKYEEFMANGSFHDVLEALYKKGKTLNFKPPRISTGAAKDAGFGAVHRVGTPPVPAPGTTEGSFEISNSSTATTGGSALSATGGMGSASASSSMPSTPVRKPIGLGGPFTVAGVVKPSPATSLDNFGAGAVGTGITTAAATMGGGYGGYGTDGAYWGGPNDMAPTSMIGGSAFIPAKFPPGPPETRGFIPYRPQVLLAEREAAAAAAAAAAAAAANNDVGGRGGVACGNGGAGGEQGKQE
# partner: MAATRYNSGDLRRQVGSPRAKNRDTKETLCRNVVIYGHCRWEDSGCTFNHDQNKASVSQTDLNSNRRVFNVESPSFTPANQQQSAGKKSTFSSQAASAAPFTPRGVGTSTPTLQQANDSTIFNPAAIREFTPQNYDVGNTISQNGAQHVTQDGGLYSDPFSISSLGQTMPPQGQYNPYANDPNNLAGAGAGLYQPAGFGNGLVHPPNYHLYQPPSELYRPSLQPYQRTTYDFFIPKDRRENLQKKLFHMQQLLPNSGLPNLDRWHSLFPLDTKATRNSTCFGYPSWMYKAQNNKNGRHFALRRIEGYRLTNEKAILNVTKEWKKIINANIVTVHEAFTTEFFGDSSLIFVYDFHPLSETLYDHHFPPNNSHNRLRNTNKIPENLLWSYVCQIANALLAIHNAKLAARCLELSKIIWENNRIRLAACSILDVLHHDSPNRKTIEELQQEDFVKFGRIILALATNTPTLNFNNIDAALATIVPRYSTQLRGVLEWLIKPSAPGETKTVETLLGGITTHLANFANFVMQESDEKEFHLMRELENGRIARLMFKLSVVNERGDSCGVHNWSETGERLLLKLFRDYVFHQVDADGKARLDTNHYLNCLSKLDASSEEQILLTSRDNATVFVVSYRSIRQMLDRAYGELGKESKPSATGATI
# B2: PAN2-PAN3 deadenylation complex subunit PAN3 (Drosophila melanogaster (Fruit fly)), Q95RR8 (parent)
# chain: MCSTYGLLSFEFSDTAAMDPIFFSPTNGIPSESKLATYMNRQNVATPSGYGLNNGFSLLNLDSPLNKKSQVTPQSPEFIPTRLGSTPNFYAPYHNAPMQLSNGLNGVNGLTAAAAAAAAAAAAAAAAVPSSTSSASSASVTISKTANGGASMLALQKTASIASVTIAQQQPQHPQKQQQHPPSVGGGAVSAASAPIAISGAPPNPAAAPFVSSMSAQTPLKGRGAMMRQESPTAAMISGAGPGEKSPPHGMTPHGASPIPSALPTSVHQENVGGTIYFYPTANAQNSQPVVNSMVVDGTHPALHGVSAVAPMSAGVPAAMMYTGHVYPGPSSNVVTMQPKTLLESAFFMPDEMRAEVLARNEISNLIMDAAEAAQHALPLEVENYHALYPLEPPAQPLHAKLTFPATTYRATHNTTGYKYCLRRIHGFRLQSTKCMTLVEMWKKLQHTNVVQLREVFTTKAFGDNSLVLVYDYHPGSQTLLAKYFTPAPETNGYTDPFQGEARPFSHKSNMQRTSNGPLLPEATIWSIIMQLTAGLKAIHHAGLACKVLDPTKIIVTGKRVRFSSCCISDITQFDPNASNPLALVNMHQQDDLTALGRLVLALACRCLQSVQRDNVQSSIDMVTRNYSTDLRNFIVYLFTTNNRRSVTDLMPMIGARFYTQLDALQSKIDMQEDELAKEMENGRLYRILVKLNSINERPDFNLDCTWSETGDRYMLKLFRDYLFHSVTEDGRPWLDHAHIVQCLNKLDAGSIERVQLMSRDEQSVLIVSYAELKNCLENAFSELMSSAAN
# B3: PAN2-PAN3 deadenylation complex subunit pan3 (Neurospora crassa (strain ATCC 24698 / 74-OR23-1A / CBS 708.71 / DSM 1257 / FGSC 987)), Q7SDP4 (parent)
# chain: B1 partner
# partner: B1 chain
# Variants of: B1
# Details: with pan3_neucr par-2, Q7SDP4
row,Variant,effect of a mutation on the interaction
1,F62E,disrupting interaction strength
2,G97E,disrupting interaction strength
3,P99R,disrupting interaction strength
4,T60R,disrupting interaction strength

# Variants of: B2
# Details: with pan2_drome PAN2, A1Z7K9
# Chain of pan2_drome PAN2, A1Z7K9 (A1Z7K9 whole entry): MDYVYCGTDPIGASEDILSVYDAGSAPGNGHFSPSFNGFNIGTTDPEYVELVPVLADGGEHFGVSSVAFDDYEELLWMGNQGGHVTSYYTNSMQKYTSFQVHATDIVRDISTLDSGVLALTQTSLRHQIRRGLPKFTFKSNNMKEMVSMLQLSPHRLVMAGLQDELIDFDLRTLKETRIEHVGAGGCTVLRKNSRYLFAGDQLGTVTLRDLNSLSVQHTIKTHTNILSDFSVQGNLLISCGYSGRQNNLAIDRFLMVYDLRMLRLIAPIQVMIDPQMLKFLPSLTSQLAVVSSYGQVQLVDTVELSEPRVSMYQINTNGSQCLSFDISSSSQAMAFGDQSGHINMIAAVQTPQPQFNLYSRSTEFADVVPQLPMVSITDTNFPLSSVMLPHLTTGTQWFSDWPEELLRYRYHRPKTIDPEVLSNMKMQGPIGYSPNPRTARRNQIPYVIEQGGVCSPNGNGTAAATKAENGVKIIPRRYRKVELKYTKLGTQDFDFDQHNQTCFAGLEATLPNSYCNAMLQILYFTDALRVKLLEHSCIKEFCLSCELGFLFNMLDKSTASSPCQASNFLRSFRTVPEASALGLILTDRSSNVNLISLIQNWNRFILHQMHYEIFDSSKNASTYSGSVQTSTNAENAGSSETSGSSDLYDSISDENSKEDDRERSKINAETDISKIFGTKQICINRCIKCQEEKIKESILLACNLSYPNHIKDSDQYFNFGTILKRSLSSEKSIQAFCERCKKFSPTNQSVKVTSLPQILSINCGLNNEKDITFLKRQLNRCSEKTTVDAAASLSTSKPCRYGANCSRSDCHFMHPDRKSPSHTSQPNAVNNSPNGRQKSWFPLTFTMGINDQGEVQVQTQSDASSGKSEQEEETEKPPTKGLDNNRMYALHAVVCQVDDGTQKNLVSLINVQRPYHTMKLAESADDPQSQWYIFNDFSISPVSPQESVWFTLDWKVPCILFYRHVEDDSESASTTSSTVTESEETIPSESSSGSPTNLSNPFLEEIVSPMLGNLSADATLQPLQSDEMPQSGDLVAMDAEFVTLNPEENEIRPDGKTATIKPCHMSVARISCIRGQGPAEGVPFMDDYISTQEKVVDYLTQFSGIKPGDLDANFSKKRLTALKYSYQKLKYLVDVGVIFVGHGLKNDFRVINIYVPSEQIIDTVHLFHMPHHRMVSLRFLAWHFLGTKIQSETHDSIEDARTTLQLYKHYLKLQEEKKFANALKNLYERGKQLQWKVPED
row,Variant,effect of a mutation on the interaction
1,Y722A;H739A;R754A,decreasing interaction strength
2,W707A;G711E;Y722A;H739A;R754A,decreasing interaction strength

# Variants of: B3
# Details: with pan2_neucr par-1, P0C581
row,Variant,effect of a mutation on the interaction
1,V627E,disrupting interaction strength
